Results reported in publication PMC10547376.

Target: actively translating polysomes (cytosolic ribosomes) (human (endogenous in HeLa, HT29))
Assay: co-sedimentation

- percent of total TRAP1 in the polysomal fractions: > 0.7%
B1: TRAP1 (endogenous) (natural protein)
chain: STQTAEDKEEPLHSIISSTESVQGSTSKHEFQAETKKLLDIVARSLYSEKEVFIRELISNASDALEKLRHKLVSDGQALPEMEIHLQTNAEKGTITIQDTGIGMTQEELVSNLGTIARSGSKAFLDALQNQAEASSKIIGQFGVGFYSAFMVADRVEVYSRSAAPGSLGYQWLSDGSGVFEIAEASGVRTGTKIIIHLKSDCKEFSSEARVRDVVTKYSNFVSFPLYLNGRRMNTLQAIWMMDPKDVREWQHEEFYRYVAQAHDKPRYTLHYKTDAPLNIRSIFYVPDMKPSMFDVSRELGSSVALYSRKVLIQTKATDILPKWLRFIRGVVDSEDIPLNLSRELLQESALIRKLRDVLQQRLIKFFIDQSKKDAEKYAKFFEDYGLFMREGIVTATEQEVKEDIAKLLRYESSALPSGQLTSLSEYASRMRAGTRNIYYLCAPNRHLAEHSPYYEAMKKKDTEVLFCFEQFDELTLLHLREFDKKKLISVETDIVVDHYKEEKFEDRSPAAECLSEKETEELMAWMRNVLGSRVTNVKVTLRLDTHPAMVTVLEMGAARHFLRMQQLAKTQEERAQLLQPTLEINPRHALIKKLNQLRASEPGLAQLLVDQIYENAMIAAGLVDDPRAMVGRLNELLVKALERH
